The record followed here is the supplement of paper PMC10567573.

Sequences and labels used below:
B1: CHIT1 (parent)
chain: CSWKGATKQRIQDQKVPYIFRDNQ
B2: ATL3 (parent)
chain: QELEEEIKELYENFCKHNGSKNVF
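Also: lentivirally expressed fusions sorted by FACS into six bins by GFP to DsRed ratio, PSI derived from sequencing read proportions per bin multiplied by bin number.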

In the first data set the parent is B1. As to the kind of experiment: protein stability index of a GFP-peptide fusion (GPS, HEK-293T) (PSI 1-6); higher = more stable. Conditions: c terminus: a fixed tail appended.
For CSWKGATKQRIQDQKVPYIFHDNQ, the protein stability index is 2.38.

For CSWKGATKQRIQDQKVPYIFLDNQ, the protein stability index amounted to 2.9.

For CSWKGATKQRIQDQKVPYIFDDNQ, the protein stability index came out at 3.49.

In the case of CSWKGATKQRIQDQKVPYCFRDNQ, the protein stability index worked out at 2.35.

On to CSWKGATKQRIQDQKVPYKFRDNQ, for which the protein stability index came to 3.67.

As for CSWKGATKQRIQDQKVPYYFRDNQ, the protein stability index was 1.95.

CSWKGATKQRIQDQKVPYTFRDNQ: the protein stability index was determined as 2.77.

CSWKGATKQRIQDQKVPYNFRDNQ: the protein stability index is 3.17.

Take CSWKGATKQRIQDQKVPYAFRDNQ: the protein stability index was found to be 3.19.

For the variant CSWKGATKQRIQDQKVPYPFRDNQ, the protein stability index came out at 1.87.

On to CSWKGATKQRIQDQKVPYVFRDNQ, for which the protein stability index came to 2.88.

For CSWKGATKQRIQDQKVPYHFRDNQ, the protein stability index came to 3.02.

Take CSWKGATKQRIQDQKVPYFFRDNQ: the protein stability index came out at 2.08.

Regarding CSWKGATKQRIQDQKVPYRFRDNQ, the protein stability index amounted to 3.28.

On to CSWKGATKQRIQDQKVPYWFRDNQ, for which the protein stability index stood at 2.06.

Turning to CSWKGATKQRIQDQKVPYEFRDNQ, the protein stability index amounted to 3.31.

For CSWKGATKQRIQDQKVPYDFRDNQ, the protein stability index amounted to 3.88.

As for CSWKGATKQRIQDQKVPYLFRDNQ, the protein stability index worked out at 2.3.

On to CSWKGATKQRIQDQKVPYMFRDNQ, for which the protein stability index came to 3.54.

In a further data set the parent is B2. The data set is described as above. The settings on record: c terminus: a fixed tail appended.
In the case of QELEEEIKELDENFCKHNGSKNVF, the protein stability index stood at 5.09.

With QELEEEIKELMENFCKHNGSKNVF, the protein stability index came out at 3.96.

QELEEEIKELSENFCKHNGSKNVF: the protein stability index is 4.61.

On to QELEEEIKELCENFCKHNGSKNVF, for which the protein stability index stood at 4.16.

Regarding QELEEEIKELYENFCKHNGSKNVA, the protein stability index was 3.45.

With QELEEEIKELYENFCKHNGSKNVV, the protein stability index is 3.01.

As to QELEEYIKELYENFCKHNGSKNVF, the protein stability index came to 2.37.

Regarding QELEETIKELYENFCKHNGSKNVF, the protein stability index was 2.86.

Turning to QELEPEIKELYENFCKHNGSKNVF, the protein stability index is 3.85.

Take QELELEIKELYENFCKHNGSKNVF: the protein stability index is 2.23.

In the case of QCLEEEIKELYENFCKHNGSKNVF, the protein stability index turned out to be 2.65.

As to QPLEEEIKELYENFCKHNGSKNVF, the protein stability index came to 3.68.

For QMLEEEIKELYENFCKHNGSKNVF, the protein stability index is 2.54.

With QNLEEEIKELYENFCKHNGSKNVF, the protein stability index came out at 3.65.

Take QELEEEIKELYENFCKHHGSKNVF: the protein stability index was determined as 2.94.

Turning to QELEEEIKELYENFCKHCGSKNVF, the protein stability index worked out at 2.75.

With QELEEEIKELYENFCKHTGSKNVF, the protein stability index was determined as 2.6.

Regarding QELEEEIKELYENFCKHVGSKNVF, the protein stability index worked out at 2.58.

Consider QELEEEIKELYENFCKHGGSKNVF, for which the protein stability index was found to be 2.34.

As to QELEEEIKELYENFCKHAGSKNVF, the protein stability index was 2.24.

Consider QELEEEIKELYENFCKHIGSKNVF, for which the protein stability index came out at 2.04.

For the variant QELEEEIKELYENFCKHPGSKNVF, the protein stability index was 2.72.

Consider QELEEEHKELYENFCKHNGSKNVF, for which the protein stability index turned out to be 4.28.

Turning to QELEEEDKELYENFCKHNGSKNVF, the protein stability index was 4.81.

Turning to QELEEECKELYENFCKHNGSKNVF, the protein stability index amounted to 4.23.

Regarding QELEEEIKELYENFEKHNGSKNVF, the protein stability index was 3.86.

For QELEEEIKELYENFHKHNGSKNVF, the protein stability index came to 4.12.

On to QELEEEIKELYENFYKHNGSKNVF, for which the protein stability index was 3.77.

Take QELEEEIKELYENFMKHNGSKNVF: the protein stability index turned out to be 2.02.

Turning to QELEEEIKELYENFCKHNGSKNMF, the protein stability index was 3.24.

In the case of QELEEEIKELYENFCKHNGSKNPF, the protein stability index is 2.61.

In the case of QELEEEIKELYEIFCKHNGSKNVF, the protein stability index stood at 2.13.

As for QELEEEIKELYETFCKHNGSKNVF, the protein stability index stood at 2.86.

Consider QELEEEIKELYEDFCKHNGSKNVF, for which the protein stability index was determined as 3.15.

As for QELEEEIKELYEPFCKHNGSKNVF, the protein stability index is 3.73.

Take QELEEEIKELYENFCKHNRSKNVF: the protein stability index was found to be 2.54.

Regarding QELEEEIKELYENFCKHNWSKNVF, the protein stability index was determined as 1.91.

As to QELEEEIKELYENFCKHNESKNVF, the protein stability index was 2.11.

Regarding QELEEEIKELYENFCKHNVSKNVF, the protein stability index is 2.35.

Consider QELEEEIKELYENFCKMNGSKNVF, for which the protein stability index was determined as 2.96.

Take QELEEEIKELYENFCKSNGSKNVF: the protein stability index was determined as 2.62.

Take QELEEEIKELYENFCKLNGSKNVF: the protein stability index is 2.99.

As for QELEEEIKELYENFCKQNGSKNVF, the protein stability index is 2.44.

For QELEEEIKELYENFCFHNGSKNVF, the protein stability index is 3.11.

As to QELEEEIKELYENFCMHNGSKNVF, the protein stability index came out at 2.79.

With QELEEEIKELYENFCCHNGSKNVF, the protein stability index was 3.43.

Consider RELEEEIKELYENFCKHNGSKNVF, for which the protein stability index came to 2.31.

For the variant NELEEEIKELYENFCKHNGSKNVF, the protein stability index amounted to 3.39.

Turning to HELEEEIKELYENFCKHNGSKNVF, the protein stability index was 3.17.

For the variant QELEEEIKELYFNFCKHNGSKNVF, the protein stability index turned out to be 2.56.

Regarding QELEEEIKELYMNFCKHNGSKNVF, the protein stability index was found to be 2.41.

For QELEEEIKELYPNFCKHNGSKNVF, the protein stability index is 3.31.

For QELEEEIYELYENFCKHNGSKNVF, the protein stability index worked out at 2.37.

As for QELEEEIKNLYENFCKHNGSKNVF, the protein stability index was 2.77.

As to QELEEEIKQLYENFCKHNGSKNVF, the protein stability index is 2.22.

With QELEEEIKLLYENFCKHNGSKNVF, the protein stability index is 1.64.

Turning to QELEEEIKEQYENFCKHNGSKNVF, the protein stability index worked out at 3.88.

For the variant QELEEEIKEWYENFCKHNGSKNVF, the protein stability index worked out at 3.06.

As to QELEEEIKELYENFCKHNGSKEVF, the protein stability index is 2.38.

As for QELEEEIKELYENFCKHNGSKKVF, the protein stability index came to 3.17.

With QELEEEIKELYENFCKHNGSKCVF, the protein stability index was 2.34.

With QELEEEIKELYENFCKHNGSKTVF, the protein stability index stood at 2.16.

For QEVEEEIKELYENFCKHNGSKNVF, the protein stability index was 2.28.

With QEIEEEIKELYENFCKHNGSKNVF, the protein stability index worked out at 3.14.

Regarding QEFEEEIKELYENFCKHNGSKNVF, the protein stability index came to 3.54.

As for QECEEEIKELYENFCKHNGSKNVF, the protein stability index came out at 3.71.

With QESEEEIKELYENFCKHNGSKNVF, the protein stability index was 4.62.

Turning to QELEEEIKELYENFCKHNGSCNVF, the protein stability index came out at 2.1.

Regarding QELEEEIKELYENFCKHNGSTNVF, the protein stability index worked out at 2.08.

In the case of QELLEEIKELYENFCKHNGSKNVF, the protein stability index was 2.47.

As to QELQEEIKELYENFCKHNGSKNVF, the protein stability index came out at 1.56.

Take QELWEEIKELYENFCKHNGSKNVF: the protein stability index is 2.39.

QELKEEIKELYENFCKHNGSKNVF: the protein stability index was found to be 2.8.

For QELHEEIKELYENFCKHNGSKNVF, the protein stability index came to 2.12.

On to QELEEEIKELYENMCKHNGSKNVF, for which the protein stability index worked out at 4.06.
